Numbering of substitutions follows the chain as printed.
What was measured:
[1] = biological target: T1, human CD22 on B cells of human PBMCs (human, UniProt P20273 20-847); experiment: flow cytometry; Alexa Fluor 647-labelled antibody on CD20+ B cells of human PBMCs
T1 construct: whole, on cells; also called CD22 on human B cells
Experimental: (§1) Binding of humanized anti-CD22 antibodies to human or cynomolgus PBMCs was measured by flow cytometry. Trima residuals were received from Vitalant and cynomolgus monkey whole blood were received from BioIVT. Both were diluted 1:4 with Phosphate Buffered Saline (PBS, Gibco). Diluted blood was split into two tubes and underplayed with 15 mL Ficoll-Paque (GE Healthcare). Tubes were centrifuged for 30 minutes at 400×g. PBMCs were collected from the interface, washed and resuspended in FACS buffer (PBS with 0.5% Bovine Serum Albumin (Gibco)). 100K PBMCs from human and cynomolgus monkey were plated in 96-well plates and pelleted by centrifugation for five minutes at 400×g and stained at 4° C. in 100 μl Fixable Viability Dye eFluor 780 (Thermo Fisher) diluted 1:4000 in PBS. Cells were centrifuged and stained at 4° C. in 100 μl FACS buffer for 30 minutes containing FcR Blocking Reagent (Miltenyi Biotec), anti-CD20 and Alexa Fluor 647 conjugated CD22 binding antibodies, which were labeled using Molecular Probes Alexa Fluor 647 Protein Labeling kit (Molecular Probes) according to manufacturer's protocol. Cells were centrifuged and washed twice in 200 μl FACS buffer and fixed in 100 μl 0.5% paraformaldehyde. Cells were analyzed on Attune NxT Flow Cytometer (Thermo Fisher), with subsequent data analysis by Flowjo 10.7 (Treestar). Dead cells were excluded by gating on the eFluor 780-negative population. CD20+ cells were gated to identify B cells and median fluorescent intensity for CD22 was determined.

[2] = biological target: T2, cynomolgus monkey CD22 on B cells of cynomolgus PBMCs (cynomolgus monkey); experiment: flow cytometry; Alexa Fluor 647-labelled antibody on CD20+ B cells of cynomolgus PBMCs
T2 construct: whole, on cells; also called cynomolgus CD22; Cyno CD22
Experimental: as §1

[3] = biological target: T3, human CD22 (d1 to d7 domain according to NP_001762.2) (human, UniProt P20273 20-687); experiment: SPR; summary table, column 'CD22 KD (nM)'
T3 construct: domain: d1 to d7 domain; also called human CD22-gly; Siglec-2

[4] = biological target: T1, human CD22 on B cells of human PBMCs; experiment: flow cytometry; Alexa Fluor 647-labelled antibody, human PBMCs
Experimental: as §1
(§2) The fold increase in binding was determined by calculating the ratio of CD22 median fluorescent intensity on CD20⁺ over CD20⁻ cells.

[5] = biological target: T2, cynomolgus monkey CD22 on B cells of …; experiment: flow cytometry; Alexa Fluor 647-labelled antibody, cynomolgus PBMCs
Experimental: as §1, §2

[6] = biological target: T3, human CD22 (d1 to d7 domain according …); experiment: SPR; mAb supernatant captured on protein A chip, human CD22 injected
Experimental: Binding of humanized anti-CD22 antibodies to human CD22 was measured by surface plasmon resonance (SPR). For assessment of binding by SPR, biotinylated protein A (15 μg/mL) was immobilized to the surface of an NLC chip. 30 μL of mAb supernatant was added to 150 μL of PBS-T and captured over the protein A surface. Serial dilutions of human CD22-gly (300 nM, 3× dilution) were injected over the mAb-coated chips, and binding kinetics were determined. Chips were regenerated using 4:1 v/v of Pierce IgG elution butter/4M NaCl.

B1: TNT70 (antibody, human IgG1, kappa, V domains shown)
VH: QVQLLESGGGVVQPGGSLRLSCAASGFAFSIYDMNWVRQAPGKGLEWVSAISSGGGTTYYADSVKGRFTISRDNAKNSLYLQMNSLRAEDTAVYYCARHSGYGTHWGVLFAYWGRGTLVTVSS
VL: DIQMTQSPSSLSASVGDRVTITCRASQDIHGYLNWYQQKPGKAPKLLIYYTSILHSGVPSRFSGSGSGTDFTLTISSLQPEDFATYFCQQGNTLPWTFGQGTKLEIKR
- CD22 Median Fluorescent Intensity on CD20+ cells [1]: 1560
- CD22 Median Fluorescent Intensity on CD20+ cells [2]: 1290

B2: TNT86 (antibody, human IgG1, kappa, V domains shown)
VH: B1 VH
VL: DIVMTQTPLSLSVTPGQPASISCRASQDIHGYLNWYQQKPGQSPQLLIYYTSILHSGVPDRFSGSGSGTDFTLKISRVEAEDVGVYFCQQGNTLPWTFGGGTKLEIKR
- Kd [3]: 1.1 nM
- CD22: CD20+/CD20- (ratio of median fluorescent intensity) [4]: 23.9 fold
- CD22: CD20+/CD20- (ratio of median fluorescent intensity) [5]: 10.9 fold
- Kd [6]: 1.09 nM
- koff [6]: 0.000141 s⁻¹
- kon [6]: 130000 M⁻¹ s⁻¹
- CD22 Median Fluorescent Intensity on CD20+ cells [1]: 1570
- CD22 Median Fluorescent Intensity on CD20+ cells [2]: 1430

B3: TNT82 (antibody, human IgG1, kappa, V domains shown)
VH: B1 VH
VL: EIVLTQSPATLSLSPGERATLSCRASQDIHGYLNWYQQKPGQAPRLLIYYTSILHSGIPARFSGSGPGTDFTLTISSLEPEDFAVYYCQQGNTLPWTFGGGTKLEIKR
- Kd [3]: 0.9 nM
- CD22: CD20+/CD20- (ratio of median fluorescent intensity) [4]: 23.9 fold
- CD22: CD20+/CD20- (ratio of median fluorescent intensity) [5]: 12.6 fold
- Kd [6]: 0.937 nM
- koff [6]: 0.000156 s⁻¹
- kon [6]: 167000 M⁻¹ s⁻¹
- CD22 Median Fluorescent Intensity on CD20+ cells [1]: 1520
- CD22 Median Fluorescent Intensity on CD20+ cells [2]: 1170

B4: TNT79 (antibody, human IgG1, kappa, V domains shown)
VH: B1 VH with Q1E, L5V, V11L, A28T, I31S, D33E, A50Y, G54S, G56S, T58I
VL: B1 VL with D28S, H30S, G31S, Y50A, T51A, I53S, H55Q, F87Y
- Kd [3]: 23 nM
- CD22 Median Fluorescent Intensity on CD20+ cells [1]: 1300
- CD22 Median Fluorescent Intensity on CD20+ cells [2]: 349

B5: TNT87 (antibody, human IgG1, kappa, V domains shown)
VH: B1 VH with Q1E, L5V, V11L, A28T, I31S, D33E, A50Y, G54S, G56S, T58I
VL: B2 VL
- Kd [3]: 0.7 nM
- CD22 Median Fluorescent Intensity on CD20+ cells [1]: 1440
- CD22 Median Fluorescent Intensity on CD20+ cells [2]: 1370

B6: TNT76 (antibody, human IgG1, kappa, V domains shown)
VH: QVQLQESGPGLVKPSDTLSLTCTVSGFAFSIYDMSWIRQPPGKGLEWIAYISSGGGTTYYNPSLKSRVTISVDTSKNQFSLKLSSVTAADTAVYYCARHSGYGTHWGVLFAYWGRGTLVTVSS
VL: B1 VL with L11V, N34A, I53S, H55Q, F87Y
- CD22 Median Fluorescent Intensity on CD20+ cells [1]: 1190
- CD22 Median Fluorescent Intensity on CD20+ cells [2]: 140

B7: TNT73 (antibody, human IgG1, kappa, V domains shown)
VH: B1 VH with Q1E, L5V, V11L, N35S, S49A, A50Y, A61P, S63T, A75S, S78T
VL: B1 VL with L11V, N34A, I53S, H55Q, F87Y
- Kd [3]: 14 nM
- CD22: CD20+/CD20- (ratio of median fluorescent intensity) [4]: 19.9 fold
- CD22: CD20+/CD20- (ratio of median fluorescent intensity) [5]: 1.9 fold
- Kd [6]: 14.5 nM
- koff [6]: 0.0023 s⁻¹
- kon [6]: 158000 M⁻¹ s⁻¹
- CD22 Median Fluorescent Intensity on CD20+ cells [1]: 1410
- CD22 Median Fluorescent Intensity on CD20+ cells [2]: 216

B8: TNT85 (antibody, human IgG1, kappa, V domains shown)
VH: B1 VH with Q1E, L5V, V11L, N35S, S49A, A50Y, A61P, S63T, A75S, S78T
VL: B2 VL
- Kd [3]: 1.3 nM
- CD22: CD20+/CD20- (ratio of median fluorescent intensity) [4]: 23.1 fold
- CD22: CD20+/CD20- (ratio of median fluorescent intensity) [5]: 9.6 fold
- Kd [6]: 1.25 nM
- koff [6]: 0.000169 s⁻¹
- kon [6]: 135000 M⁻¹ s⁻¹
- CD22 Median Fluorescent Intensity on CD20+ cells [1]: 1580
- CD22 Median Fluorescent Intensity on CD20+ cells [2]: 1380

B9: TNT83 (antibody, human IgG1, kappa, V domains shown)
VH: B1 VH with Q1E, L5V, V11L, A28T, I31S, D33E, A50Y, G54S, G56S, T58I
VL: B3 VL
- Kd [3]: 6 nM
- CD22: CD20+/CD20- (ratio of median fluorescent intensity) [4]: 23 fold
- CD22: CD20+/CD20- (ratio of median fluorescent intensity) [5]: 10.8 fold
- Kd [6]: 5.94 nM
- koff [6]: 0.0016 s⁻¹
- kon [6]: 269000 M⁻¹ s⁻¹
- CD22 Median Fluorescent Intensity on CD20+ cells [1]: 1490
- CD22 Median Fluorescent Intensity on CD20+ cells [2]: 1400

B10: TNT78 (antibody, human IgG1, kappa, V domains shown)
VH: B1 VH
VL: B1 VL with D28S, H30S, G31S, Y50A, T51A, I53S, H55Q, F87Y
- Kd [3]: 25 nM
- CD22: CD20+/CD20- (ratio of median fluorescent intensity) [4]: 19.8 fold
- CD22: CD20+/CD20- (ratio of median fluorescent intensity) [5]: 1.2 fold
- Kd [6]: 24.9 nM
- koff [6]: 0.00485 s⁻¹
- kon [6]: 195000 M⁻¹ s⁻¹
- CD22 Median Fluorescent Intensity on CD20+ cells [1]: 1210
- CD22 Median Fluorescent Intensity on CD20+ cells [2]: 112

B11: TNT80 (antibody, human IgG1, kappa, V domains shown)
VH: B6 VH
VL: B1 VL with D28S, H30S, G31S, Y50A, T51A, I53S, H55Q, F87Y
- CD22 Median Fluorescent Intensity on CD20+ cells [1]: 1210
- CD22 Median Fluorescent Intensity on CD20+ cells [2]: 159

B12: TNT74 (antibody, human IgG1, kappa, V domains shown)
VH: B1 VH
VL: B1 VL with L11V, N34A, I53S, H55Q, F87Y
- Kd [3]: 16 nM
- Kd [6]: 15.6 nM
- CD22 Median Fluorescent Intensity on CD20+ cells [1]: 1310

B13: TNT75 (antibody, human IgG1, kappa, V domains shown)
VH: B1 VH with Q1E, L5V, V11L, A28T, I31S, D33E, A50Y, G54S, G56S, T58I
VL: B1 VL with L11V, N34A, I53S, H55Q, F87Y
- Kd [3]: 30 nM
- CD22: CD20+/CD20- (ratio of median fluorescent intensity) [4]: 26.7 fold
- CD22: CD20+/CD20- (ratio of median fluorescent intensity) [5]: 6.7 fold
- Kd [6]: 30 nM
- koff [6]: 0.0084 s⁻¹
- kon [6]: 280000 M⁻¹ s⁻¹
- CD22 Median Fluorescent Intensity on CD20+ cells [1]: 1630
- CD22 Median Fluorescent Intensity on CD20+ cells [2]: 588

B14: TNT69 (antibody, human IgG1, kappa, V domains shown)
VH: B1 VH with Q1E, L5V, V11L, N35S, S49A, A50Y, A61P, S63T, A75S, S78T
VL: B1 VL
- Kd [3]: 0.6 nM
- CD22: CD20+/CD20- (ratio of median fluorescent intensity) [4]: 25.4 fold
- CD22: CD20+/CD20- (ratio of median fluorescent intensity) [5]: 14.9 fold
- Kd [6]: 0.624 nM
- koff [6]: 0.000126 s⁻¹
- kon [6]: 201000 M⁻¹ s⁻¹
- CD22 Median Fluorescent Intensity on CD20+ cells [1]: 1610
- CD22 Median Fluorescent Intensity on CD20+ cells [2]: 1410
